# Test results reported in US20230151106A1, “OFATUMUMAB FOR TREATING MS WHILE MAINTAINING SERUM IgG” (NOVARTIS AG, priority 2020, published 2023).
# Entries after “also recorded” stand apart in the source; their conditions may differ. Like-named read-outs stand apart in the source and are kept apart here.
# Experiments:
# IgM = test: Long term study (Example 5), IgM levels; type: in vivo, human; settings: OMB long-term group, FIGS. 16 and 17
# Source text: (§1) 2”, preferably version 13.0 dated 2018-11.
# (§2) Patients were subjected to a long term treatment.
# B cells = test: B-cell repletion after study treatment discontinuation (Pool C2, OMS115102); type: in vivo, human; settings: study OMS115102, approximately 48 weeks post study
# IgG = test: Long term study (Example 5), IgG levels; type: in vivo, human; settings: OMB long-term group, FIG. 14
# Source text: as §1, §2
# CD20 receptor on B-cells = test: Nonclinical ADCC activity comparison; type: cell-based; settings: ofatumumab compared to ocrelizumab and rituximab
# CD19+ B-cells = test: CD19+ B-cell depletion in ASCLEPIOS; type: in vivo, human
# Procedure: ASCLEPIOS I and II are double-blind, double-dummy, active comparator-controlled, parallel-group, innovative, adaptive design, multicentre trials. Patients were randomised (1:1) to receive either ofatumumab 20 mg sc injections every 4 weeks (after an initial loading regimen of 20 mg sc doses on Days 1, 7 and 14) or teriflunomide 14 mg orally once daily, for up to 30 months. […] Patients aged 18-55 years with an Expanded Disability Status Scale (EDSS) score (according to Kurtzke, Neurology. 1983, Nov; 33(11): 1444-52) of 0-5.5 at screening who experienced ≥1 relapse in the past year or ≥2 relapses in the past 2 years or a positive gadolinium-enhancing (Gd+) MRI scan during the year before randomisation were included.
# CD20 receptor = molecular target: T1, CD20 receptor (Homo sapiens, UniProt P11836); test: B-cell binding studies, off-rate; settings: in comparison to rituximab
# T1 construct: endogenous in cells
# T1 sequence (P11836 1-297): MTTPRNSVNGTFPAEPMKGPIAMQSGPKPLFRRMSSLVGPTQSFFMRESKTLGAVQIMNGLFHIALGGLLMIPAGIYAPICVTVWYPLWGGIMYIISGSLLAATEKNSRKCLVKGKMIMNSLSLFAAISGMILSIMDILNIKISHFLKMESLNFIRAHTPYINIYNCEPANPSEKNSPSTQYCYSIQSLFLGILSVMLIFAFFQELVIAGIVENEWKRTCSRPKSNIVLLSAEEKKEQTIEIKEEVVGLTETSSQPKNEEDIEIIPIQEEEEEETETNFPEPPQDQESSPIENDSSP
# COVID-19 = settings: for COVID-19 symptoms duration / Outcome: serious case
# Procedure: Confirmed or suspected cases of COVID-19 infection in patients receiving ofatumumab in the open-label extension study ALITHIOS were reviewed (data cutoff: Dec. 21, 2020)
# COVID-19 cases were classified as confirmed if SARS-CoV2 positive test results were available, or patient was reported to be diagnosed with COVID-19
# Suspected cases of COVID-19 were classified as suspected if without a positive SARS-CoV2 test or definitive diagnosis
# The following COVID-19 case characteristics were assessed:
# *Serious criteria is based on the regulatory reporting definition established by ICH, for the purposes of regulatory reporting obligations, and consists of fatal, life-threatening, hospitalization and medically significant
# [1] = system: multiple sclerosis patients; test: Infections in relation to IgM/IgG levels <LLN vs >=LLN in ofatumumab MS studies
# Source text: (§3) Serum IgG/IgM levels were monitored at baseline, Week (W) 4, W12 and every 12 weeks, see FIG. 1.
# serum IgG [2] = settings: in vivo
# Procedure: (§4) In the present application serum Ig levels can preferably be determined by immunoturbidimetry. Preferably a Roche cobas® Analyzer was used, especially module c of the cobas® analyser. In a preferred embodiment Ig levels can be determined by using a cobas® c 311 analyzer. It is further preferred that IgG measurements are carried out as described in the cobas® leaflet “IGG-2 Tina-quant IgG Gen. 2”, preferably version 11.0 dated 2016-02 and IgM measurements as described in the leaflet “IGM-2 Tina-quant IgM Gen. 2”, preferably version 13.0 dated 2018-11.
# (§5) Serum samples were preferably kept at 2-8° C. before measurement.
# (§6) Patients were randomised (1:1) to receive either ofatumumab 20 mg sc injections every 4 weeks (after an initial loading regimen of 20 mg sc doses on Days 1, 7 and 14) or teriflunomide 14 mg orally once daily, for up to 30 months.
# as §3
# MS patients [3] = test: General safety in MS clinical trials with ofatumumab (neutrophils, PML, hepatitis B, malignancy, cytopenia); settings: human, in vivo
# serum IgG [4] = test: Serum IgG levels in ASCLEPIOS I/II (Pool C2)
# Procedure: as §4, §5, §6, §3
# serum IgM = test: Serum IgM levels in ASCLEPIOS I/II (Pool C2); type: in vivo, human
# Procedure: In the present application serum Ig levels can preferably be determined by immunoturbidimetry. Preferably a Roche cobas® Analyzer was used, especially module c of the cobas® analyser.
# as §5
# ASCLEPIOS I and II are double-blind, double-dummy, active comparator-controlled, parallel-group, innovative, adaptive design, multicentre trials. Patients were randomised (1:1) to receive either ofatumumab 20 mg sc injections every 4 weeks (after an initial loading regimen of 20 mg sc doses on Days 1, 7 and 14) or teriflunomide 14 mg orally once daily, for up to 30 months.
# MS patients [5] = settings: human, in vivo
# [6] = in vivo, sc, 20 mg
# MS patients [7] = settings: cited from earlier work
# IgG levels = test: Metanalysis of Example 1 versus Derfuss et al. (pooled OPERA), IgG levels; type: in vivo, human
# Source text: In a metanalysis, the results of Example 1 and the results obtained by Derfuss et al. were compared.
# [8] = system: multiple sclerosis patients; settings: in vivo
# Source text: as §3
substance,measurement,setting,value
ofatumumab: recombinant human monoclonal immunoglobulin G1 (IgG1) antibody that binds to human CD20,IgM levels with longer duration,IgM,levels remained above the lower limit of normal
same,B-cell repletion,B cells,"B cells for all subjects were repleted, with the exception of one subject"
same,IgG levels over long-term follow-up,IgG,stable over the long-term follow-up of >4 years
same,ADCC activity,CD20 receptor on B-cells,No relevant difference
same,patients with CD19+ B-cells below LLN,CD19+ B-cells; Week 1,77.0%
same,"patients with CD19+ B-cells below LLN, n/M",CD19+ B-cells; Week 1,338/439
same,patients with CD19+ B-cells below LLN,"CD19+ B-cells; Week 1, listed as OMB",(77.0) %
same,patients with CD19+ B-cells below LLN,CD19+ B-cells; Week 2,95.0%
same,"patients with CD19+ B-cells below LLN, n/M",CD19+ B-cells; Week 2,420/442
same,patients with CD19+ B-cells below LLN,"CD19+ B-cells; Week 2, listed as OMB",(95.0) %
same,patients with CD19+ B-cells below LLN,CD19+ B-cells; Week 4,(97.8) %
same,"patients with CD19+ B-cells below LLN, n/M",CD19+ B-cells; Week 4,440/450
same,patients with CD19+ B-cells below LLN,CD19+ B-cells; Week 12,99.3%
same,"patients with CD19+ B-cells below LLN, n/M",CD19+ B-cells; Week 12,440/443
same,patients with CD19+ B-cells below LLN,"CD19+ B-cells; Week 12, listed as OMB",(99.3) %
same,patients with CD19+ B-cells below LLN,CD19+ B-cells; Week 24,(98.4) %
same,"patients with CD19+ B-cells below LLN, n/M",CD19+ B-cells; Week 24,422/429
same,patients with CD19+ B-cells below LLN,CD19+ B-cells; Week 36,(98.8) %
same,"patients with CD19+ B-cells below LLN, n/M",CD19+ B-cells; Week 36,415/420
same,patients with CD19+ B-cells below LLN,CD19+ B-cells; Week 48,(98.3) %
same,"patients with CD19+ B-cells below LLN, n/M",CD19+ B-cells; Week 48,397/404
same,patients with CD19+ B-cells below LLN,CD19+ B-cells; Week 60,(96.7) %
same,"patients with CD19+ B-cells below LLN, n/M",CD19+ B-cells; Week 60,385/398
same,patients with CD19+ B-cells below LLN,CD19+ B-cells; Week 72,(98.2) %
same,"patients with CD19+ B-cells below LLN, n/M",CD19+ B-cells; Week 72,379/386
same,patients with CD19+ B-cells below LLN,CD19+ B-cells; Week 84,(98.9) %
same,"patients with CD19+ B-cells below LLN, n/M",CD19+ B-cells; Week 84,260/263
same,patients with CD19+ B-cells below LLN,CD19+ B-cells; Week 96,(99.4) %
same,"patients with CD19+ B-cells below LLN, n/M",CD19+ B-cells; Week 96,161/162
same,patients with CD19+ B-cells below LLN,CD19+ B-cells; Week 108,(97.9) %
same,"patients with CD19+ B-cells below LLN, n/M",CD19+ B-cells; Week 108,93/95
same,patients with CD19+ B-cells below LLN,CD19+ B-cells; Week 120,(100) %
same,"patients with CD19+ B-cells below LLN, n/M",CD19+ B-cells; Week 120,28/28
same,median CD19+ B-cell count,CD19+ B-cells; from Week 2 onwards,zero
same,patients in whom CD19+ B-cell depletion was maintained,CD19+ B-cells; throughout the treatment period,> 96%
same,off-rate (dissociation rate of the antibody from the CD20 receptor),CD20 receptor,lower off-rate
same,COVID-19 outcome: Ongoing,COVID-19; Non-serious (n = 29),0
same,COVID-19 outcome: Recovered,COVID-19; Non-serious (n = 29),29
same,COVID-19 outcome: Recovering,COVID-19; Non-serious (n = 29),0
same,COVID-19 outcome: Recovered,COVID-19; Serious (n = 6),5
same,cases with no change in ofatumumab treatment required,COVID-19; confirmed COVID-19 infection,21 cases
same,cases with treatment temporarily interrupted due to confirmed COVID-19 infection,"COVID-19; human, in vivo",5 cases
same,cases with complete recovery,COVID-19; of 35 confirmed cases,34 cases
same,"confirmed COVID-19 cases, Non-serious",COVID-19; of 35 confirmed cases,Non-serious (n = 29)
same,COVID-19 symptoms duration,COVID-19; Patient ID 5409018,~50 days
same,Outcome,COVID-19; Patient ID 5409018,Complete
same,COVID-19 symptoms duration,COVID-19; Patient ID 5608014,18 days
same,Outcome,COVID-19; Patient ID 5608014,Complete
same,COVID-19 symptoms duration,COVID-19; Patient ID 5800004,~30 days
same,Outcome,COVID-19; Patient ID 5800004,Fatal
same,COVID-19 symptoms duration,COVID-19; Patient ID 5800043,11 days
same,Outcome,COVID-19; Patient ID 5800043,Complete
same,COVID-19 symptoms duration,COVID-19; Patient ID 5801015,15 days
same,Outcome,COVID-19; Patient ID 5801015,Complete
same,COVID-19 symptoms duration,COVID-19; Patient ID 5806001,10 days
same,Outcome,COVID-19; Patient ID 5806001,Complete
same,Number of patients with at least 1 infection AE by Grade: Grade 4,"[1]; IgG <LLN, N = 134",0 n
same,infection AE by outcome: Fatal,"[1]; IgG <LLN, N = 134",0 n
same,infection AE by outcome: Fatal,"[1]; IgM <LLN, N = 167",0 n
same,infection AE by outcome: Fatal,"[1]; IgM ≥LLN, N = 777",0 n
same,"patients with IgG below LLN, n/N",serum IgG [2],134/944
same,cytopenia during therapy,MS patients [3],No cytopenia
same,recovery of IgG levels after reduction until Week 36,"serum IgG [4]; ASCLEPIOS I and II, FIG. 7",recovered up to baseline levels by W72
same,change in mean serum IgG value from baseline,serum IgG [4]; Week 96,+0.249 g/L
same,patients with IgG levels 20% below the LLN,serum IgG [4]; Week 96 (Week-96 completers),no ofatumumab patients
same,increase in mean serum IgG value from baseline,"serum IgG [4]; Week 96, ASCLEPIOS studies",2.2%
same,proportion of patients with IgG levels below the LLN versus teriflunomide,"serum IgG [4]; any time post-baseline, FIG. 8",lower proportion
same,patients with IgG levels on or above the LLN,"serum IgG [4]; any time post-baseline, FIG. 9",> 85%
same,proportion of patients with IgG below LLN,serum IgG [4]; anytime during post baseline visit,14.2%
same,turning point at which the trend of decreasing IgG levels reverses,serum IgG [4]; in vivo,36 week
same,mean serum IgG over time compared to baseline,serum IgG [4]; over 96 weeks treatment,no decrease in mean values; also recorded: No decrease in mean serum IgG
same,decrease of IgG levels,serum IgG [4]; week 72 and thereafter,no decrease
same,IgM decline with treatment,serum IgM; MS studies,some level of IgM decline but the majority of the patients remained above LLN
same,change in mean IgM,"serum IgM; Week 96 completers, Pool C2",-0.537 g/L
same,decline in mean IgM,"serum IgM; Week 96 completers, Pool C2",38.8%
same,proportion of patients with IgM levels below LLN and 10% below the LLN versus teriflunomide,"serum IgM; any time post baseline and at Week 96, FIG. 8",higher proportion
same,patients with IgM levels on or above the LLN,"serum IgM; any time post-baseline, FIG. 9",82-89%
same,change in mean IgM value,"serum IgM; baseline to Week 48, Pool C2",-0.420 g/L
same,decrease in mean IgM value,"serum IgM; baseline to Week 48, Pool C2",30.9%
same,mean serum IgM levels versus reference range,"serum IgM; over time, reference range 0.40-2.30 g/L",remained well within the reference ranges
same,cases of PML or Hepatitis B reactivation or serious potential OI,MS patients [5],no cases
same,incidence of malignancy,MS patients [5],no increased incidence
same,mean and median values of neutrophil count,MS patients [5],remained within the normal ranges
same,risk of neutropenia,MS patients [5],No risk of neutropenia
same,half-life at steady state,[6],approximately 16 days
same,suppression of gadolinium (Gd) T1 lesions when compared to Aubagio,MS patients [7]; ASCLEPIOS I/II,highly significant suppression
same,annualized relapse rate (ARR),MS patients [7]; ASCLEPIOS I,0.11
same,reduction in annualized relapse rate (ARR) compared to Aubagio (teriflunomide),MS patients [7]; ASCLEPIOS I,50.5%
same,annualized relapse rate (ARR),MS patients [7]; ASCLEPIOS II,0.10
same,reduction in annualized relapse rate (ARR) compared to Aubagio (teriflunomide),MS patients [7]; ASCLEPIOS II,58.5%
same,relative risk reduction in 3-month confirmed disability progression (CDP) versus Aubagio,MS patients [7]; pre-specified pooled analyses,34.4%
same,relative risk reduction in 6-month CDP versus Aubagio,MS patients [7]; pre-specified pooled analyses,32.5%
same,increase of IgG levels,IgG levels; after two years (96 weeks),about 3%
same,effect on IgG levels on the long term,IgG levels; in vivo,sustains and even increases IgG levels
same,Infections observed after the first drop of IgG<LLN,[8],45.5%
same,"Infections observed after the first drop of IgG<LLN, number of patients",[8],61
same,Number of patients with at least 1 infection AE by Grade: Grade 4,[8],0 n
same,infection AE by outcome: Recovered/resolved,[8],0 n
same,infection AE by outcome: Recovered/resolved with sequelae,[8],0 n
same,infection AE by outcome: Recovering/resolving,[8],0 n
same,patients who received immunoglobulin substitution therapy for decrease in IgG/M,[8],none of the patients
same,patients who reported an infection post study drug discontinuation,[8],six of 32
same,serious opportunistic infections,[8],no cases
